Measured values reported in patent US20120039906A1.

Biological target: PD-1 Ig fusion protein (extracellular region of human PD-1, aa 1 to 152, fused to the Fc fragment of human IgG1) (human) (UniProt Q15116)
Experiment: SPR (Biacore), 1:1 Langmuir model, PD-L2 Ig over immobilised PD-1 Ig; bivalent analyte, filing calls it most likely an avidity value

Sequence of PD-1 Ig fusion protein (extracellular region of human PD-1, aa 1 to 152, fused to the Fc fragment of human IgG1) (human) (Q15116 other isoform, or with tags, fused parts or gaps limits assumed, form in doubt): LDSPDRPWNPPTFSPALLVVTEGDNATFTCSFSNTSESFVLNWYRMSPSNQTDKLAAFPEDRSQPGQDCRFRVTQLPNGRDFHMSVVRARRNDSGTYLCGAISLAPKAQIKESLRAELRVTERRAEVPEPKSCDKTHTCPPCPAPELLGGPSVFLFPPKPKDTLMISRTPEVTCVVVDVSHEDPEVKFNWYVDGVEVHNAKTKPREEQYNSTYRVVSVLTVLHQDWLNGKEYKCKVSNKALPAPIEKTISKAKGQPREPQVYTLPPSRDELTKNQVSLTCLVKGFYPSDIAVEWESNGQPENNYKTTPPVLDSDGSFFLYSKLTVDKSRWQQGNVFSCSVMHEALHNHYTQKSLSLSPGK

- Kd: 9.97 nM
Substance: PD-L2 Ig fusion protein (extracellular portion of human PD-L2 fused to the Fc fragment of human IgG1) (from UniProt Q9BQ51 20-220) (Fc fusion)
